From patent EP2784083A1 (Charité - Universitätsmedizin Berlin, dated 2014) come the findings set out here.

Numbering of substitutions follows the chain as printed. In names and notes the source's numbering stands.

Common to all, as to experiment: cell-based or functional assay
Test [1] deals with wildtype human BMP2 (human) (UniProt P12643).
In test [2] the target is hBMP2(N341 V-N384W) (human) (UniProt P12643).
Test [3] has as its target T1, murine Bmpr2 (murine, UniProt O35607 27-1038).
T1 sequence (looked up): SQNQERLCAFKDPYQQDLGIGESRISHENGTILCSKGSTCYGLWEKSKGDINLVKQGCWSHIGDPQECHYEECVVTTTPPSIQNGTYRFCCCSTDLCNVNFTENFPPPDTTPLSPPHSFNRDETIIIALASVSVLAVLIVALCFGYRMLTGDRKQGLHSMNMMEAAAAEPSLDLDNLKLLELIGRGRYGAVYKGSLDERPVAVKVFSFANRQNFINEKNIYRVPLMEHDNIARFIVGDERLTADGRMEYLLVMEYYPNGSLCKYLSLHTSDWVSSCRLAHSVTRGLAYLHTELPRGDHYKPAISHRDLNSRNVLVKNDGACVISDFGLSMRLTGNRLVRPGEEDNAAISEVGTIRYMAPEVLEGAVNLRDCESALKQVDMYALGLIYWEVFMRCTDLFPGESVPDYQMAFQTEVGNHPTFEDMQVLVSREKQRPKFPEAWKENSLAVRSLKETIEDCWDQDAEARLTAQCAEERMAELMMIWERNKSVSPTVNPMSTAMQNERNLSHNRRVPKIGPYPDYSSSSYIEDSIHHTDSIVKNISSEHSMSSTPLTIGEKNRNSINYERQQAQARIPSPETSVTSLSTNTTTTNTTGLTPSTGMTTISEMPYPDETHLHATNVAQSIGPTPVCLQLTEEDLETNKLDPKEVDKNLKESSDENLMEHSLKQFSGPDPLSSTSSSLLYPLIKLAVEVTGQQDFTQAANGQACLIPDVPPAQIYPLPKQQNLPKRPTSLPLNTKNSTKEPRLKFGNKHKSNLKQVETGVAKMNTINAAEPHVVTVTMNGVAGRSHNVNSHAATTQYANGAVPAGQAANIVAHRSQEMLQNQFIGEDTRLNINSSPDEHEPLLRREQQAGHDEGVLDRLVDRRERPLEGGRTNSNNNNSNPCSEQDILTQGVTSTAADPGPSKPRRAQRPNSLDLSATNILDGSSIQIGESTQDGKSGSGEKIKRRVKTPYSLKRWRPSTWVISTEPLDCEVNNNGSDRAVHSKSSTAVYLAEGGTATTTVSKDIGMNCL

The target in test [4] is murine Acvr2b (murine, UniProt P27040 19-536).
Test [5] addresses murine Acvr2a (murine, UniProt P27038 20-513).
For test [6], the target named is T2, murine Acvr1 c (murine, UniProt Q8K348 26-493).
T2 sequence (looked up): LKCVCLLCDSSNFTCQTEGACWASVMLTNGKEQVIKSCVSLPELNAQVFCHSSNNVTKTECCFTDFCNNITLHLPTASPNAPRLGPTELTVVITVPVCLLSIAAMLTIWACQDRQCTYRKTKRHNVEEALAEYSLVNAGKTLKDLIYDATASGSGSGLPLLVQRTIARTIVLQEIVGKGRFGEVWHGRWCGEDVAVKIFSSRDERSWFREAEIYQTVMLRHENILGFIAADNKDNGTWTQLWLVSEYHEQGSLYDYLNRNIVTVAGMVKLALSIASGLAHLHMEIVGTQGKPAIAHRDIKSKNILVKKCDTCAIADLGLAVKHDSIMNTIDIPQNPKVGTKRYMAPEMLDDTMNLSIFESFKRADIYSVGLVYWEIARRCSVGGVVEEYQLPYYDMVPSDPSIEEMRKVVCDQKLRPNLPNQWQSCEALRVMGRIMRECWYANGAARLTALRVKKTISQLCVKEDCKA

The target of test [7] is T3, murine Acvrl1 (murine, UniProt Q61288 23-502).
T3 sequence (looked up): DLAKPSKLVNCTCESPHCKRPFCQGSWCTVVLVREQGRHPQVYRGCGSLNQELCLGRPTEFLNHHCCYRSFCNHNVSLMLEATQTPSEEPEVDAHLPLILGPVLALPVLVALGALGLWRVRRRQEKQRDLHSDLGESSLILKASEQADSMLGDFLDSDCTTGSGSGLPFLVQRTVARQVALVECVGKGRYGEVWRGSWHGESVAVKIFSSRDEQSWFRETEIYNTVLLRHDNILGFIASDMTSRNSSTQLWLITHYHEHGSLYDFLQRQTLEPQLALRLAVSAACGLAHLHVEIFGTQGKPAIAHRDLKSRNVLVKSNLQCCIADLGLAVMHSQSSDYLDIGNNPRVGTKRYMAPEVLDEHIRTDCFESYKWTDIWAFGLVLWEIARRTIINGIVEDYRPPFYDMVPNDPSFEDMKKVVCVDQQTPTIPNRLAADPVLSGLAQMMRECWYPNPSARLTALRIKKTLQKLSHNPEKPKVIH

Test [8] concerns the target T4, murine Actr1 b (murine, UniProt Q61271 24-505).
T4 sequence (looked up): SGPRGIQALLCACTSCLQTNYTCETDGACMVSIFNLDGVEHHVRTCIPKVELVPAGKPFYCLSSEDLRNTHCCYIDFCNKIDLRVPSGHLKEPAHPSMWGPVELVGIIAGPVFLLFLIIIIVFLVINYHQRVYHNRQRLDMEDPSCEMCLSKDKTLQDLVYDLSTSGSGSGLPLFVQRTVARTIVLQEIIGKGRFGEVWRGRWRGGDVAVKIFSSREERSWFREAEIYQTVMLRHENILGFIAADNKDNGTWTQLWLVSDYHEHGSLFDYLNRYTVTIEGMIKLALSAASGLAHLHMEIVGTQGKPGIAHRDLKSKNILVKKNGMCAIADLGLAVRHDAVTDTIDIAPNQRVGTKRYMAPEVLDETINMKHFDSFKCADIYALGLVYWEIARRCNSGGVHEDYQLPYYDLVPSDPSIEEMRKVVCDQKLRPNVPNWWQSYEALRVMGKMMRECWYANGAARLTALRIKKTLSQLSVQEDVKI

Test [9] deals with T5, murine Tβr1 (murine, UniProt Q64729 30-503).
T5 sequence (looked up): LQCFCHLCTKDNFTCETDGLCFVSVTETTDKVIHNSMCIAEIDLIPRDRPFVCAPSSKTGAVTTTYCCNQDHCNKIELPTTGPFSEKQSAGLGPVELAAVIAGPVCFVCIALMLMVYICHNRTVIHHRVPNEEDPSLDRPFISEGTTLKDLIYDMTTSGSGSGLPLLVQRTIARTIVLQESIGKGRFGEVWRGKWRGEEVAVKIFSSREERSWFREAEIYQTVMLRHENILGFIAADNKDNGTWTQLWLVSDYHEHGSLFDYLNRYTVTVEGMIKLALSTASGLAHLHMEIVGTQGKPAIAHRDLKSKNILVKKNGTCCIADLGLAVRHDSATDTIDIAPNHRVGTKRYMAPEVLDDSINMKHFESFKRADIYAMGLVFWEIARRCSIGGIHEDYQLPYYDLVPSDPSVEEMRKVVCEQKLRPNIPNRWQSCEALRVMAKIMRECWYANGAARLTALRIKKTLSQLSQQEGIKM

Test [10] addresses murine Bmpr1b (murine, UniProt P36898 14-502).
Test [11] deals with T6, murine Acvr1 (murine, UniProt P37172 21-509).
T6 sequence (looked up): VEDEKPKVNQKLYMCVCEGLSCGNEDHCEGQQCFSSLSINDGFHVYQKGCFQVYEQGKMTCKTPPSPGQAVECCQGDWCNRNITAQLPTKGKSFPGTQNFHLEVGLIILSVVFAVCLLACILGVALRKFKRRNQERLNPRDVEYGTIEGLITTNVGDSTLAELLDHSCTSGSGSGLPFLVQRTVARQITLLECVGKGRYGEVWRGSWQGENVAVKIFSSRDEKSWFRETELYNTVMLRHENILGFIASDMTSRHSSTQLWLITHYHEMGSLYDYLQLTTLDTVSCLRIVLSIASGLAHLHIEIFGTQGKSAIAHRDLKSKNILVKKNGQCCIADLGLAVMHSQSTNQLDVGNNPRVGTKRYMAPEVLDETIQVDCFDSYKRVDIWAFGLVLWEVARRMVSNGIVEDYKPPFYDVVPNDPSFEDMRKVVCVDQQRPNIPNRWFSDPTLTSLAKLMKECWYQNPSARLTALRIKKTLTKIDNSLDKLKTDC

Test [12] addresses murine Bmpr1a (murine, UniProt P36895 24-532).

murine Acvr2a, sequence (P27038 20-513): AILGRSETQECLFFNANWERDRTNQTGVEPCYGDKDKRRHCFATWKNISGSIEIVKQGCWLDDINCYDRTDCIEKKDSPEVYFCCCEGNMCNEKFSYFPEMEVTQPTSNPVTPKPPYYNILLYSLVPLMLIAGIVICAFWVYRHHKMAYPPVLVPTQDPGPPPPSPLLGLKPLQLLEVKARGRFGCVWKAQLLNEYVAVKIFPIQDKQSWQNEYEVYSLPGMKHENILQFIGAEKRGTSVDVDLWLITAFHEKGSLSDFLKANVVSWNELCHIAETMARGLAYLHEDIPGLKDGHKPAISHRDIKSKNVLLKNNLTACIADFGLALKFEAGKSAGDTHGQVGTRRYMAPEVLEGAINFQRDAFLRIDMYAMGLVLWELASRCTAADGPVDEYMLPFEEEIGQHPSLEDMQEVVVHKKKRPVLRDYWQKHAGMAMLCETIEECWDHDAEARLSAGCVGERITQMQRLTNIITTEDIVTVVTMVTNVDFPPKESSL
murine Bmpr1b, sequence (P36898 14-502): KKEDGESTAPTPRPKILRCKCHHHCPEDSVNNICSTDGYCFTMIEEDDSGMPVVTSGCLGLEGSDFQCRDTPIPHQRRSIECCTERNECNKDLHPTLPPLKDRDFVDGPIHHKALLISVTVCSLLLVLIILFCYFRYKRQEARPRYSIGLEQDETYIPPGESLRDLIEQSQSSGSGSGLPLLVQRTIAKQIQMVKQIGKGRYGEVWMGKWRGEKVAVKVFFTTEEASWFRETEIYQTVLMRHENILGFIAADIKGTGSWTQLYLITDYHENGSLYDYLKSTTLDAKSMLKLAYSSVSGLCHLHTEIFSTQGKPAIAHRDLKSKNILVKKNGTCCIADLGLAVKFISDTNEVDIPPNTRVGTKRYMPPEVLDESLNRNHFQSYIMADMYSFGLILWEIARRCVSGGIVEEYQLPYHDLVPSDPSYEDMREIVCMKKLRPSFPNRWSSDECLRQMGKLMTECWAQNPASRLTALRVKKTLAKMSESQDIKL
murine Acvr2b, sequence (P27040 19-536): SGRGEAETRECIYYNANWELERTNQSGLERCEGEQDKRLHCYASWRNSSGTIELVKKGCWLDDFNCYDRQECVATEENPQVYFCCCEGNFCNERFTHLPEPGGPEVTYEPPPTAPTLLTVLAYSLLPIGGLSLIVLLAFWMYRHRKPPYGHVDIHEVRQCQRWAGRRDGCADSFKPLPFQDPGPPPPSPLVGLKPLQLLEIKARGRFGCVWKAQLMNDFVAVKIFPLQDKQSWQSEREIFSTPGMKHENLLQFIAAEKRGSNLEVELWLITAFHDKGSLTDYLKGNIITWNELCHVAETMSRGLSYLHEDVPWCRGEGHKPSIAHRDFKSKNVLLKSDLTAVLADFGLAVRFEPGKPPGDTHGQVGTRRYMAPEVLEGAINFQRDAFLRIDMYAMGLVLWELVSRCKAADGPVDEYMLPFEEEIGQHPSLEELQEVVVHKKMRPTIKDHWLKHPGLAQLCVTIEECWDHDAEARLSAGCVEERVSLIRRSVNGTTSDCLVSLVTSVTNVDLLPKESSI
murine Bmpr1a, sequence (P36895 24-532): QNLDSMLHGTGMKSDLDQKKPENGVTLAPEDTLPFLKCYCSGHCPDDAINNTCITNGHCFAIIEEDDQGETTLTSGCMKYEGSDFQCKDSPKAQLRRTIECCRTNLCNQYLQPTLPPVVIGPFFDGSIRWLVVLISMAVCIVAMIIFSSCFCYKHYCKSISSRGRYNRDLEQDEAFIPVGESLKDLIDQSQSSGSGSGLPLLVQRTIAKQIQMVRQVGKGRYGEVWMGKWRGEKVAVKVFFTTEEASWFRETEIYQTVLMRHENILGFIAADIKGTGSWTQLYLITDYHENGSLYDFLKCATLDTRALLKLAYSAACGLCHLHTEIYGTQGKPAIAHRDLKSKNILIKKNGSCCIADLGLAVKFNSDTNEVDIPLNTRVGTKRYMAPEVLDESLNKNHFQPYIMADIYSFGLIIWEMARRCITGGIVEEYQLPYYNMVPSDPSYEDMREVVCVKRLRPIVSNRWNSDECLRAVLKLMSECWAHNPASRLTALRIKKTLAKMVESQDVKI

In [1], “human NOG (Noggin) (from UniProt Q13253 28-232)” displayed a rel. luciferase activity (SBE reporter, NIH3T3 cells) at 5x surplus of co-transfected NOG DNA (rel. luciferase activity) of 1.53 and a rel. luciferase activity (SBE reporter, NIH3T3 cells) at 50x surplus of co-transfected NOG DNA (rel. luciferase activity) of 1.51. In test [2], this molecule displayed an NOG DNA surplus that blocks SBE reporter activation to control levels, NIH3T3 cells (fold surplus of transfected NOG-DNA) of 500; a rel. luciferase activity (SBE reporter, NIH3T3 cells) at 5x surplus of co-transfected NOG DNA (rel. luciferase activity) of 9.31; a rel. luciferase activity (SBE reporter, NIH3T3 cells) at 50x surplus of co-transfected NOG DNA (rel. luciferase activity) of 7.11. In [2] (scale: % of the wild-type activity in the absence of its antagonist), the chondrogenic potential in chicken micromass culture (Alcian blue), NOG co-expressed is greater than 100.

B1: wildtype human BMP2 (ligand)
chain: QAKHKQRKRLKSSCKRHPLYVDFSDVGWNDWIVAPPGYHAFYCHGECPFPLADHLNSTNHAIVQTLVNSVNSKIPKACCVPTELSAISMLYLDENEKVVLKNYQDMVVEGCGCR
With B1, the “rel. luciferase activity (SBE reporter, COS-1 cells)” value in test [3] was determined as 268 rel. luciferase activity; in test [4], 171 rel. luciferase activity; in test [5], 57.4 rel. luciferase activity; in test [6], 2.06 rel. luciferase activity; in [7], 6.41 rel. luciferase activity; in test [8] it was 2.81 rel. luciferase activity. Further, the entries for the “rel. luciferase activity (SBE reporter, COS-1 cells)” value in [9], in [10] and in [11] were 2.44 rel. luciferase activity, 37.5 rel. luciferase activity and 1.63 rel. luciferase activity, respectively.

B2: hBMP2(N341 V-N384W) (ligand)
chain: B1 chain with N59V, N102W
As for B2, the “rel. luciferase activity (SBE reporter, COS-1 cells)” value worked out at 262 rel. luciferase activity in test [3]; 156 rel. luciferase activity in test [4]; 46.7 rel. luciferase activity in test [5]; 24.6 rel. luciferase activity in test [12]; 2.75 rel. luciferase activity in test [6]; 7.57 rel. luciferase activity in test [7]. For the same molecule, the “rel. luciferase activity (SBE reporter, COS-1 cells)” value in test [8] is 3.4 rel. luciferase activity; in [9] it was 2.52 rel. luciferase activity; in [10], 28.8 rel. luciferase activity; in test [11], 1.23 rel. luciferase activity.
